Common to all, as to test: SPR, mAb captured, C2 mutant analyte;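 note: Anti-C2 mAbs captured on goat anti-human IgG Biacore CM5 chips, alanine or serine C2 surface mutants flowed over at 37 °C, double-referenced sensorgrams fitted to a 1:1 binding model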
Assay [1] concerns the target T1, human C2 L453A (human, UniProt P06681 21-752).
T1 sequence: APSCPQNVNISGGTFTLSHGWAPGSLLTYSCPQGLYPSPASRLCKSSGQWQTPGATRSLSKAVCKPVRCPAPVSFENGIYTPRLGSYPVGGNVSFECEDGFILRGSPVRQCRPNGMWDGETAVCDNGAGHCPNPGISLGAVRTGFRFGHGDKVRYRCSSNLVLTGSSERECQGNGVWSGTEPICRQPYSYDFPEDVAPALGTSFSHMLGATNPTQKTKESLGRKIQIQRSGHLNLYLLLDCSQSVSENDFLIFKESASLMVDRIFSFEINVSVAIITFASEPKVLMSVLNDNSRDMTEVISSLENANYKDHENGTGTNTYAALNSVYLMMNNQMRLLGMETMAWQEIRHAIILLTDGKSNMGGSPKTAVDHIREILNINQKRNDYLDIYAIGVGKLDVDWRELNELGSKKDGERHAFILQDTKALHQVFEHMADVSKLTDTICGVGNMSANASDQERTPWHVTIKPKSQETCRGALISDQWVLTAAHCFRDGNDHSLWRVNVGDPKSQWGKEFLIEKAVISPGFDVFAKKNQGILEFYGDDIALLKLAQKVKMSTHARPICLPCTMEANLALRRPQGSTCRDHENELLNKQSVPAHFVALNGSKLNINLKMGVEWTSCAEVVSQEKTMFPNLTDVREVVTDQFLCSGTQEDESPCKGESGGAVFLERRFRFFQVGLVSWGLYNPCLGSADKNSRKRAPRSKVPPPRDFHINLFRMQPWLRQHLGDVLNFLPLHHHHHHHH

Assay [2] deals with T2, human C2 A470S (human, UniProt P06681 21-752).
T2 sequence: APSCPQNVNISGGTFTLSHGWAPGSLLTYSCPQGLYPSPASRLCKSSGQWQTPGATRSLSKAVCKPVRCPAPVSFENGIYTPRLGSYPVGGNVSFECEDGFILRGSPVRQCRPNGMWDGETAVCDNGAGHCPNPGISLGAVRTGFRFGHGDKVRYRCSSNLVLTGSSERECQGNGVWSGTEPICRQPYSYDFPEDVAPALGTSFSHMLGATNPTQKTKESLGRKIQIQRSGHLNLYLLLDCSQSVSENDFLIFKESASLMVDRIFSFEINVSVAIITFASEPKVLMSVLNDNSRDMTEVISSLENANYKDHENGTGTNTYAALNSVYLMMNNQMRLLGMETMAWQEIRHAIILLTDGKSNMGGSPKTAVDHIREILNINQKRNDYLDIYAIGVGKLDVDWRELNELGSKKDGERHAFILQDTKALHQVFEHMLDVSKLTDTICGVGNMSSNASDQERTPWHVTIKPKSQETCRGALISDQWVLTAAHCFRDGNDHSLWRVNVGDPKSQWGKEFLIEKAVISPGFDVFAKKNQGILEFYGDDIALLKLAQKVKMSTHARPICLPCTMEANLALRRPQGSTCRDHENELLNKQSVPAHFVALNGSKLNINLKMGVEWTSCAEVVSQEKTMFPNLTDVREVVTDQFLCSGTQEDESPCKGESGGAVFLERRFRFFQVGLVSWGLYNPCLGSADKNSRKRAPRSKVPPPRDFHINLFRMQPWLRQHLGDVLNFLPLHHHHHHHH

For assay [3], the target named is T3, human C2 R434A (human, UniProt P06681 21-752).
T3 sequence: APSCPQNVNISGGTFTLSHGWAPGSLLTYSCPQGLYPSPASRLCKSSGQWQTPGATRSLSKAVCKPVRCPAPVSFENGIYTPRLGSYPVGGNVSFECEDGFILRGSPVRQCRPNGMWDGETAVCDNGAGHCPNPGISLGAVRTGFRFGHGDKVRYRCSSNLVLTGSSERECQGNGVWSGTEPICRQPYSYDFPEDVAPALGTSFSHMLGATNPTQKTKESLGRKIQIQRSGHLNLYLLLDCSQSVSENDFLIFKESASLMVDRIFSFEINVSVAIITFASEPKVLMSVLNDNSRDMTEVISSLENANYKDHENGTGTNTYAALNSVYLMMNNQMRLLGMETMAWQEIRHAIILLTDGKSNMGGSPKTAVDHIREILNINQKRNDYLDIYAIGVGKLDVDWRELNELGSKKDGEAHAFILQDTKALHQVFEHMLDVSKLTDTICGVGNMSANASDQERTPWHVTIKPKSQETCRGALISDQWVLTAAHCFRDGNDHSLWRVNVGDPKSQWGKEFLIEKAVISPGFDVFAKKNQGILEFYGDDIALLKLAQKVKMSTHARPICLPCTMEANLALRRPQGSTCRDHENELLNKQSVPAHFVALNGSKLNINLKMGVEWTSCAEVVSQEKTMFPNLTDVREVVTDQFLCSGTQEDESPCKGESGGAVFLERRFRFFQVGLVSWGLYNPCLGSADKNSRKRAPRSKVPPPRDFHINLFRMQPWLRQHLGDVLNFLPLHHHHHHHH

The target of assay [4] is T4, human C2 M452A (human, UniProt P06681 21-752).
T4 sequence: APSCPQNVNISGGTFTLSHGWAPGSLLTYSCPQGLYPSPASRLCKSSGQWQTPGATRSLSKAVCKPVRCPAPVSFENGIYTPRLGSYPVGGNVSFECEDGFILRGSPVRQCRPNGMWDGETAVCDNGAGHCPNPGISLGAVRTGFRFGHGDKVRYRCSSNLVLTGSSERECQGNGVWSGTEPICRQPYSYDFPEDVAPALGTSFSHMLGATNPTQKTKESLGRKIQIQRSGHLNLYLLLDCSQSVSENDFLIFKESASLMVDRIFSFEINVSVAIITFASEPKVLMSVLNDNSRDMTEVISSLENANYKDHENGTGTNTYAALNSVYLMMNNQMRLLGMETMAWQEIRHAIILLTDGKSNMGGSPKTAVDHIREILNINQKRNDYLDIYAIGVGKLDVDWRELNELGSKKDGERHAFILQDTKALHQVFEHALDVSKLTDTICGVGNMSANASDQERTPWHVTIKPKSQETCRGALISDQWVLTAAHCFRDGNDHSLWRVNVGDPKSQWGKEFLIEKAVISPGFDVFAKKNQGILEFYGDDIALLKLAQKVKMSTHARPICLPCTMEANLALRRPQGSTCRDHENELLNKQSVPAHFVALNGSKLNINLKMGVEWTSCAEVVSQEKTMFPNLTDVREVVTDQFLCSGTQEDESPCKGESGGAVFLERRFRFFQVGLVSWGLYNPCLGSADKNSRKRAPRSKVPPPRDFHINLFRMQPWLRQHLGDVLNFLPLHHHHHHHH

The values below come from patent publication US20220332804A1 (CSL INNOVATION, published 2022).

Broadly, the Kd is the free concentration of one partner at which half of the binding sites on the other are occupied at equilibrium, for simple one-to-one binding. Low values mean tighter binding, high ones weaker binding.

B1: RF16-214 (antibody, V domains shown)
VH: EVQLLESGGGLVQPGGSLRLSCAASGFTFSWYQMMWVRQAPGKGLEWVSRIYPSGGGTAYADSVKGRFTISRDNSKNTLYLQMNSLRAEDTAVYYCARDAGYGDNWGQGTLVTVSS
VL: QSALTQPPSVSVSPGQTASITCSGDKLGEKYASWYQQKAGQSPVMVIYQDRKRPSGIPERFSGSNSGNTATLTISGTQAMDEADYYCQAWDTRAVVFGGGTKLTVLG
As for B1, the Kd turned out to be 1410 nM in assay [1], 32.8 nM in assay [2], 230 nM in assay [3] and 21.3 nM in assay [4].
